Usually Kd stands for the free concentration of one partner at which half of the binding sites on the other are occupied at equilibrium, for simple one-to-one binding.

The values below come from publication PMC5375031 (Nature, 2017).

Where no end group is shown, it is not given here.

The target in test [1] is T1, TAZ1 domain of CBP (residues 340-439 of mouse CBP) (mouse, UniProt P45481 340-439). In words: stopped-flow fluorescence.
The target of test [2] is T1, TAZ1 domain of CBP (residues 340-439 of …). In words: fluorescence polarisation.
The target is the same in test [3]. The experiment in a line: fluorescence polarisation + BLI. (In general: Fluorescence polarisation rises when a labelled molecule tumbles more slowly, as on binding a larger partner.)
Test [4] has the same target. The experiment in a line: fluorescence polarisation. The source holds these as a separate data set.

T1 sequence (P45481 340-439): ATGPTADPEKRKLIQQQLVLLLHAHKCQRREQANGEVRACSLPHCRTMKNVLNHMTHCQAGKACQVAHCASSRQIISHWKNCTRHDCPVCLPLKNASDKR

B1: HIF-1α 776-826 C800V labeled with Alexa Fluor 488 at position 780 (peptide, UniProt Q16665 776-826, looked up)
chain: SDLAC(Alexa Fluor 488)RLLGQSMDESGLPQLTSYDVEVNAPIQGSRNLLQGEELLRALDQVN
For B1, the binding result in test [1] is on record as “binds”.

B2: HIF-1α 776-826 C800V labeled with Alexa Fluor 594 at position 780 (peptide, UniProt Q16665 776-826, looked up)
chain: SDLAC(Alexa Fluor 594)RLLGQSMDESGLPQLTSYDVEVNAPIQGSRNLLQGEELLRALDQVN
Take B2: the binding result in test [2] was “binds”.

B3: HIF-1α C-terminal transactivation domain peptide (residues 776-826) (peptide, UniProt Q16665 776-826, looked up)
chain: SDLACRLLGQSMDESGLPQLTSYDCEVNAPIQGSRNLLQGEELLRALDQVN
Regarding B3, in test [2], the “apparent Kd (displacing labeled HIF-1α from TAZ1)” value was determined as 10 ± 1 nM. Besides, the Kd in test [3] came out at 10 nM.

B4: CITED2 216-269 labeled with Alexa Fluor 594 at Cys 261 (peptide, UniProt Q99967 216-269, looked up)
chain: NVIDTDFIDEEVLMSLVIEMGLDRIKELPELWLGQNEFDFMTDFVC(Alexa Fluor 594)KQQPSRVS
Turning to B4, the binding result in test [4] is recorded as “binds”.

B5: CITED2 transactivation domain peptide (residues 216-269) (peptide, UniProt Q99967 216-269, looked up)
chain: NVIDTDFIDEEVLMSLVIEMGLDRIKELPELWLGQNEFDFMTDFVCKQQPSRVS
B5: the dissociation constant (Kd) in test [3] came out at 10 nM.
